{"source": "patent US7807783", "about": "(REGENTS OF THE UNIVERSITY OF MICHIGAN, dated 2010)", "binders": {"B1": {"name": "GAL4 activation domain-FADD fusion protein (GAL4ad-FADD) (other, not shown: large carriers)", "chain": "MDPFLVLLHSVSSSLSSSELTELKFLCLGRVGKRKLERVQSGLDLFSMLLEQNDLEPGHTELLRELLASLRRHDLLRRVDDFEAGAAAGAAPGEEDLCAAFNVICDNVGKDWRRLARQLKVSDTKIDSIEDRYPRNLTERVRESLRIWKNTEKENATVAHLVGALRSCQMNLVADLVQEVQQARDLQNRSGAMSPMSWNSDASTSEAS"}, "B2": {"name": "clone 15 (GAL4 activation domain fusion isolated in the yeast two-hybrid screen) (other, not shown: large carriers)", "chain": "KFLCLGRVGKRKLERVQSGLDLFSMLLEQNDLEPGHTELLRELLASLRRHDLLRRVDDFEAGAAAGAAPGEEDLCAAFNVICDNVGKDWRRLARQLKVSDTKIDSIEDRYPRNLTERVRESLRIWKNTEKENATVAHLVGALRSCQMNLVADLVQEVQQARDLQNRSGAMSPMSWNSDASTSEAS", "notes": "also called GAL4ad-FADD (clone 15)"}, "B3": {"name": "N-FADD (other)", "chain": "DTYRYIMDPFLVLLHSVSSSLSSSELTELKFLCLGRVGKRKLERVQSGLDLFSMLLEQNDLEPGHTELLRELLASLRRHDLLRRVDDFEAGAAAGAAPGEEDLCAAFNVICDNVGKDWRRLAR", "notes": "the AU1-tagged form is the one made for the cell death assays; also called AU1-N-FADD"}, "B4": {"name": "AU1-epitope tagged FADD (AU1-FADD) (other)", "chain": "DTYRYIMDPFLVLLHSVSSSLSSSELTELKFLCLGRVGKRKLERVQSGLDLFSMLLEQNDLEPGHTELLRELLASLRRHDLLRRVDDFEAGAAAGAAPGEEDLCAAFNVICDNVGKDWRRLARQLKVSDTKIDSIEDRYPRNLTERVRESLRIWKNTEKENATVAHLVGALRSCQMNLVADLVQEVQQARDLQNRSGAMSPMSWNSDASTSEAS", "modifications": "35S-methionine/cysteine metabolic label", "notes": "the tag is placed N-terminal by the name only"}, "B5": {"name": "AU1-FADDmt (other)", "chain": "B4 chain with V127N", "modifications": "35S-methionine/cysteine metabolic label", "notes": "also called point mutant of FADD"}, "B6": {"name": "GAL4 DNA binding domain fusion of the cytoplasmic domain of CD28 (receptor, UniProt P04386 1-147, looked up)", "chain": "MKLLSSIEQACDICRLKKLKCSKEKPKCAKCLKNNWECRYSPKTKRSPLTRAHLTEVESRLERLEQLFLLIFPREDLDMILKMDSLQDIKALLTGLFVQDNVNKDAVTDRLASVETDMPLTLRQHRISATSSSEESSNKGQRQLTVSRSKRSRLLHSDYMNMTPRRPGPTRKHYQPYAPPRDFAAYRS", "notes": "also called CD28 (yeast bait)"}, "B7": {"name": "clone 8 (GAL4 activation domain fusion isolated in the yeast two-hybrid screen) (other, not shown: large carriers)", "chain": "SGLDLFSMLLEQNDLEPGHTELLRELLASLRRHDLLRRVDDFEAGAAAGAAPGEEDLCAAFNVICDNVGKDWRRLARQLKVSDTKIDSIEDRYPRNLTERVRESLRIWKNTEKENATVAHLVGALRSCQMNLVADLVQEVQQARDLQNRSGAMSPMSWNSDASTSEAS"}, "B8": {"name": "HA-epitope tagged FADD (HA-FADD) (other)", "chain": "YPYDVPDYAMDPFLVLLHSVSSSLSSSELTELKFLCLGRVGKRKLERVQSGLDLFSMLLEQNDLEPGHTELLRELLASLRRHDLLRRVDDFEAGAAAGAAPGEEDLCAAFNVICDNVGKDWRRLARQLKVSDTKIDSIEDRYPRNLTERVRESLRIWKNTEKENATVAHLVGALRSCQMNLVADLVQEVQQARDLQNRSGAMSPMSWNSDASTSEAS", "modifications": "35S-methionine/cysteine metabolic or in vitro translation label", "notes": "also called in vitro translated FADD; 35S-labeled FADD"}}, "key": {"[1]": {"molecular_target": "T1, GAL4 DNA binding domain fusion of full-length B94 (UniProt P04386 1-147; Q03169 1-654)", "T1 construct": "also called B94 (yeast bait)", "experiment": "yeast two-hybrid, β-galactosidase filter assay", "text": "(§1) The following yeast two-hybrid system was used and constructed as follows. The cytoplasmic domains of Fas, Fas-FD8, TNRF-1, Δ-TNFR-1, CD40, and CD28 were obtained by PCR and cloned in-frame, as confirmed by sequencing, into the GAL4 DNA binding domain (GAL4bd) vector pAS1CYH2. Full-length A20 and B94 were similarly cloned into the bait vector. GAL4bd-Fas was cotransformed with a prey plasmid containing a human B-cell cDNA expression library fused to the GAL4 activation domain (GAL4ad) in the pACT plasmid. A more detailed account of the plasmids used in the procedure for the yeast two-hybrid system can be found in Hu et al. (1994) *J. Biol. Chem.* 269:30069-30072.\n(§2) The yeast two-hybrid system was used to screen for proteins that interact with the cytoplasmic domain of Fas. An expression vector was constructed by fusing the GAL4 DNA-binding domain to the cytoplasmic tail of the human Fas antigen (GAL4bd-Fas). This bait plasmid was cotransformed in yeast with a prey plasmid containing a human B-cell cDNA expression library fused to the GAL4-activation domain. Seventeen positive clones were obtained from 2 ×10^6 transformants screened. To determine the specificity of interaction, plasmids containing the activation domain fusion proteins were recovered from the putative positive clones and cotransformed with GAL4bd-Fas and control heterologous baits."}, "[2]": {"molecular_target": "T2, GAL4 DNA binding domain fusion of full-length A20 (UniProt P04386 1-147; P21580 1-790)", "T2 construct": "also called A20 (yeast bait)", "experiment": "yeast two-hybrid, β-galactosidase filter assay", "text": "as §1, §2"}, "[3]": {"molecular_target": "T3, GAL4 DNA binding domain fusion of the cytoplasmic domain of CD40 (UniProt P04386 1-147; P25942 216-277, limits assumed)", "T3 construct": "also called CD40 (yeast bait)", "experiment": "yeast two-hybrid, β-galactosidase filter assay", "text": "as §1, §2"}, "[4]": {"molecular_target": "B6", "experiment": "yeast two-hybrid", "text": "as §1, §2"}, "[5]": {"molecular_target": "T1, GAL4 DNA binding domain fusion of …", "experiment": "yeast two-hybrid", "text": "as §1, §2"}, "[6]": {"molecular_target": "T2, GAL4 DNA binding domain fusion of …", "experiment": "yeast two-hybrid", "text": "as §1, §2"}, "[7]": {"molecular_target": "T3, GAL4 DNA binding domain fusion of the …", "experiment": "yeast two-hybrid", "text": "as §1, §2"}, "[8]": {"molecular_target": "T4, cytoplasmic domain of Fas (UniProt P25445 191-335, limits assumed)", "T4 construct": "domain: cytoplasmic domain", "T4 sequence (looked up)": "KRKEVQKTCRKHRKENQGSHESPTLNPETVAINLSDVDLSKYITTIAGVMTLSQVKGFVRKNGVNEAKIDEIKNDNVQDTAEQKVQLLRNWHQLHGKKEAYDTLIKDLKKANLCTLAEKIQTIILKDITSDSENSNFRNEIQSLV", "experiment": "not described"}, "GST [9]": {"molecular_target": "T5, GST (UniProt P08515 1-218 = GST)", "T5 construct": "Control protein on glutathione beads", "T5 sequence (P08515 whole entry, the tested form may be a part)": "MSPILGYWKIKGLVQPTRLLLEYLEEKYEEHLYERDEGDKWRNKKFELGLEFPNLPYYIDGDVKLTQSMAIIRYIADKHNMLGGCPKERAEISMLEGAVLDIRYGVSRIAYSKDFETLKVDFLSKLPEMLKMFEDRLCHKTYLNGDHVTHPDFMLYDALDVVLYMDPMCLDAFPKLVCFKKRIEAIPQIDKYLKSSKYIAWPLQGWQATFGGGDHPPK", "experiment": "GST pull-down from lysates of transfected 293T cells", "procedure": "(§3) Detergent lysates were prepared and incubated with various GST fusion proteins immobilized on glutathione-Sepharose beads. The samples were analyzed by SDS-PAGE and autoradiography (upper panel). The respective GST fusion proteins are shown as in FIG. 4B (middle panel)."}, "[10]": {"molecular_target": "T6, GST-Fas (GST fusion protein containing the cytoplasmic domain of Fas) (UniProt P25445 191-335)", "T6 construct": "domain: cytoplasmic domain; Made in E. coli BL21(DE3)pLysS and immobilized on glutathione beads; not shown: glutathione S-transferase of vector pGSTag", "T6 sequence (looked up)": "T4 sequence (looked up)", "experiment": "GST pull-down from lysates of transfected 293T cells", "procedure": "as §3"}, "[11]": {"molecular_target": "B1", "experiment": "yeast two-hybrid, β-galactosidase filter assay", "text": "as §1, §2"}, "[12]": {"molecular_target": "GAL4 DNA-binding domain fused to the cytoplasmic tail of the human Fas antigen (GAL4bd-Fas) (human, UniProt P04386 1-147; P25445 191-335, limits assumed)", "experiment": "yeast two-hybrid", "text": "as §1, §2"}, "GST [13]": {"molecular_target": "T5, GST", "experiment": "GST pull-down of 35S-labeled in vitro translated FADD, SDS-PAGE and autoradiography"}}, "note": "Substitutions are numbered along the chain they refer to."}
{"binder": "B1", "values": [{"measurement": "binding result", "setting": "[1]", "result": "no binding"}, {"measurement": "binding result", "setting": "[2]", "result": "no binding"}, {"measurement": "binding result", "setting": "[3]", "result": "no binding"}]}
{"binder": "B2", "values": [{"measurement": "binding result", "setting": "[4]", "result": "no binding"}, {"measurement": "binding result", "setting": "[5]", "result": "no binding"}, {"measurement": "binding result", "setting": "[6]", "result": "no binding"}, {"measurement": "binding result", "setting": "[7]", "result": "no binding"}]}
{"binder": "B3", "values": [{"measurement": "binding result", "setting": "[8]", "result": "no binding"}]}
{"binder": "B4", "values": [{"measurement": "binding result", "setting": "GST [9]", "result": "no binding"}]}
{"binder": "B5", "values": [{"measurement": "binding result", "setting": "GST [9]", "result": "no binding"}, {"measurement": "binding result", "setting": "[10]", "result": "no binding"}]}
{"binder": "B6", "values": [{"measurement": "binding result", "setting": "[11]", "result": "no binding"}]}
{"binder": "B7", "values": [{"measurement": "binding result", "setting": "[4]", "result": "no binding"}, {"measurement": "binding result", "setting": "[5]", "result": "no binding"}, {"measurement": "binding result", "setting": "[6]", "result": "no binding"}, {"measurement": "binding result", "setting": "[12]", "result": "binds"}, {"measurement": "binding result", "setting": "[7]", "result": "no binding"}]}
{"binder": "B8", "values": [{"measurement": "binding result", "setting": "GST [13]", "result": "no binding"}]}
